Measured values reported in patent US20050282743A1, “Molecular interactions in cells” (Arbor Vita Corporation, priority 2001, published 2005).
Values belong to the compound of their own block, whether it stands above or below them. Ends that are not written are not given here. Peptide text beside a SMILES is read from it. * marks the point of attachment. Biotin = O=C1N[C@H]2[C@H](CS[C@H]2CCCCC(=O)*)N1

Legend:
Test in all cases: G' assay (10 uM PL peptide), results of TABLE 7 and TABLE 12
Format in all cases: binding
[1] = target: T1, PDZ protein (GST-PDZ fusion) (Homo sapiens, UniProt Q9BXL6); settings: PDZ CARD14, PDZ Domain 1
T1 construct: made in house; host or cells: E. coli (DH5alpha, BL21 or JM109)
T1 sequence (Q9BXL6 1-1004): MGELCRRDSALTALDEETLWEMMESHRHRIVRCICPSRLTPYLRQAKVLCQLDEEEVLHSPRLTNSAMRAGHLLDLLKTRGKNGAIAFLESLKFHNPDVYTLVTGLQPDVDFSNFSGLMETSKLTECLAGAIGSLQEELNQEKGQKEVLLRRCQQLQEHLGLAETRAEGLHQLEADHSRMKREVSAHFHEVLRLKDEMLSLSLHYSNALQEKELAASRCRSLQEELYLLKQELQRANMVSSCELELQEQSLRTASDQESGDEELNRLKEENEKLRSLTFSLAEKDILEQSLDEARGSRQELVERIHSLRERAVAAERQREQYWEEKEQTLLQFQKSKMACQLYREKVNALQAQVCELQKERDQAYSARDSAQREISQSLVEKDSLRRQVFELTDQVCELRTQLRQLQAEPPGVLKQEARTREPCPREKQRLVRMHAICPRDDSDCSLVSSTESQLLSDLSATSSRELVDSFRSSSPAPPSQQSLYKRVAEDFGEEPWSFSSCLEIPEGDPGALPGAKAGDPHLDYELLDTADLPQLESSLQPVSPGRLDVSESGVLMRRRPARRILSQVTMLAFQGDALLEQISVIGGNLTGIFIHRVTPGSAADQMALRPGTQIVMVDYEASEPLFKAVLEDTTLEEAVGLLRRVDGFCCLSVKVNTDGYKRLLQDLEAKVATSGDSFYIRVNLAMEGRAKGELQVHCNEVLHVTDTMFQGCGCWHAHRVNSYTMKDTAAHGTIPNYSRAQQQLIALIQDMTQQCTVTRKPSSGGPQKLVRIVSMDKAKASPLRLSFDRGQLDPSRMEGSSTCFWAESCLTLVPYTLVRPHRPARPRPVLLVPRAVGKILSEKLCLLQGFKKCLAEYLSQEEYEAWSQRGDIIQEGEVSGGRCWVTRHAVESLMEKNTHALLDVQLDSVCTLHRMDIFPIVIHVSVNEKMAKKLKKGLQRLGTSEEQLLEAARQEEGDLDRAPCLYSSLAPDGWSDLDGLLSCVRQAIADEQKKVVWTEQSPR
In short: (§1)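 Biotinylated PL peptides at 10 uM (vs 20 uM in G^0 assay) bound to GST-PDZ fusions; PDZ protein at 5 ug/ml unless another concentration listed. Bound peptide read as A450 nm, classified 0–5 (0 = A450 0; 5 = A450 >4 repeated).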

[2] = target: T2, PDZ protein (GST-PDZ fusion) (Rattus norvegicus, UniProt Q9JLU4); settings: PDZ rat SHANK 3, PDZ Domain 1
T2 construct: made in house; host or cells: E. coli (DH5alpha, BL21 or JM109)
T2 sequence (Q9JLU4 whole entry, the tested form may be a part): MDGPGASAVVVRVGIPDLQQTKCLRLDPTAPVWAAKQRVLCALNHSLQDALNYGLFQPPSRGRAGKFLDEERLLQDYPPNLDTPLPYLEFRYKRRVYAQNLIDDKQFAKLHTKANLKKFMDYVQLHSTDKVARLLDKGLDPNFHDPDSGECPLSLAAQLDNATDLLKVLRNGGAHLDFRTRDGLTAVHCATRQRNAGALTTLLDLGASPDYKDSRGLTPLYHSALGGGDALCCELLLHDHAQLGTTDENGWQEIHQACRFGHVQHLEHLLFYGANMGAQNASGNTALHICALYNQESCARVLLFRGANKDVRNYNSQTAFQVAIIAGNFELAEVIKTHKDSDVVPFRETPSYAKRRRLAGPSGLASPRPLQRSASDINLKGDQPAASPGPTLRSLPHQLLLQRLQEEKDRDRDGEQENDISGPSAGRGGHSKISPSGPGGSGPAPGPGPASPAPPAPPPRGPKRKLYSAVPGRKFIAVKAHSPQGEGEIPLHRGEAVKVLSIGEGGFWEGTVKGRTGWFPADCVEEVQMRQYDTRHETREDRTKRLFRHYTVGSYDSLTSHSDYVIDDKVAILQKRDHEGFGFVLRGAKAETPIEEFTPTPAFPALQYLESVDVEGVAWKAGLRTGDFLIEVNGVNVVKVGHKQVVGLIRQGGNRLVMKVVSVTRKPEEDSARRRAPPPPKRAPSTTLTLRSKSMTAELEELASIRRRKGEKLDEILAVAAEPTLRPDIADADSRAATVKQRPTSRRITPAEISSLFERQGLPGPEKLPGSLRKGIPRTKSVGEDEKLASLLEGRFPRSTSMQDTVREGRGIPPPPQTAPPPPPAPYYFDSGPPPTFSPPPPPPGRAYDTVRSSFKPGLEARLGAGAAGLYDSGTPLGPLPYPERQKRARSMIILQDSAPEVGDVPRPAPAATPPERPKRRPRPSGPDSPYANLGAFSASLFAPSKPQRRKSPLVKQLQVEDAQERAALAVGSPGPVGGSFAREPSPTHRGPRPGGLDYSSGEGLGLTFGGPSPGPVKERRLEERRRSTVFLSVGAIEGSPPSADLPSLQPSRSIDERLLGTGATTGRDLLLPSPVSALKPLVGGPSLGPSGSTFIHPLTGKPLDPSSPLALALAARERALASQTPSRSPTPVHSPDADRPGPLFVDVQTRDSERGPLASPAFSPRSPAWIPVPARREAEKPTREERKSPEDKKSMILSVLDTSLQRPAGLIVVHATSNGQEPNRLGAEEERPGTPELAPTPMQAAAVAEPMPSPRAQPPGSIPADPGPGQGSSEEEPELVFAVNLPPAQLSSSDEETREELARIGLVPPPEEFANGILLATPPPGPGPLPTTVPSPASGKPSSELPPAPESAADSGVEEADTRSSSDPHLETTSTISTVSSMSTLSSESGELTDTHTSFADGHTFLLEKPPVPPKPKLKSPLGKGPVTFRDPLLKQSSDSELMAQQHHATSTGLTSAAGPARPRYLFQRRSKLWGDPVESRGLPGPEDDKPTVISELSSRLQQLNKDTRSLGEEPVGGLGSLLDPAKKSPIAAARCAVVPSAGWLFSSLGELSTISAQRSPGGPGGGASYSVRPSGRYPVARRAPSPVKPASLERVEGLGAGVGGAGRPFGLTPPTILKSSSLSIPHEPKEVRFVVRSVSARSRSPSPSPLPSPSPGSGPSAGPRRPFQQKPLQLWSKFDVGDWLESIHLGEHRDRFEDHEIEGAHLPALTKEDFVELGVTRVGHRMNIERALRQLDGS
In short: as §1

[3] = target: T3, PDZ protein (GST-PDZ fusion) (Homo sapiens, UniProt O15021); settings: PDZ KIAA0303, PDZ Domain 1
T3 construct: made in house; host or cells: E. coli (DH5alpha, BL21 or JM109)
In short: as §1

[4] = target: T4, PDZ protein (GST-PDZ fusion) (Homo sapiens, UniProt O60307); settings: PDZ KIAA0561, PDZ Domain 1
T4 construct: made in house; host or cells: E. coli (DH5alpha, BL21 or JM109)
T4 sequence (O60307 whole entry, the tested form may be a part): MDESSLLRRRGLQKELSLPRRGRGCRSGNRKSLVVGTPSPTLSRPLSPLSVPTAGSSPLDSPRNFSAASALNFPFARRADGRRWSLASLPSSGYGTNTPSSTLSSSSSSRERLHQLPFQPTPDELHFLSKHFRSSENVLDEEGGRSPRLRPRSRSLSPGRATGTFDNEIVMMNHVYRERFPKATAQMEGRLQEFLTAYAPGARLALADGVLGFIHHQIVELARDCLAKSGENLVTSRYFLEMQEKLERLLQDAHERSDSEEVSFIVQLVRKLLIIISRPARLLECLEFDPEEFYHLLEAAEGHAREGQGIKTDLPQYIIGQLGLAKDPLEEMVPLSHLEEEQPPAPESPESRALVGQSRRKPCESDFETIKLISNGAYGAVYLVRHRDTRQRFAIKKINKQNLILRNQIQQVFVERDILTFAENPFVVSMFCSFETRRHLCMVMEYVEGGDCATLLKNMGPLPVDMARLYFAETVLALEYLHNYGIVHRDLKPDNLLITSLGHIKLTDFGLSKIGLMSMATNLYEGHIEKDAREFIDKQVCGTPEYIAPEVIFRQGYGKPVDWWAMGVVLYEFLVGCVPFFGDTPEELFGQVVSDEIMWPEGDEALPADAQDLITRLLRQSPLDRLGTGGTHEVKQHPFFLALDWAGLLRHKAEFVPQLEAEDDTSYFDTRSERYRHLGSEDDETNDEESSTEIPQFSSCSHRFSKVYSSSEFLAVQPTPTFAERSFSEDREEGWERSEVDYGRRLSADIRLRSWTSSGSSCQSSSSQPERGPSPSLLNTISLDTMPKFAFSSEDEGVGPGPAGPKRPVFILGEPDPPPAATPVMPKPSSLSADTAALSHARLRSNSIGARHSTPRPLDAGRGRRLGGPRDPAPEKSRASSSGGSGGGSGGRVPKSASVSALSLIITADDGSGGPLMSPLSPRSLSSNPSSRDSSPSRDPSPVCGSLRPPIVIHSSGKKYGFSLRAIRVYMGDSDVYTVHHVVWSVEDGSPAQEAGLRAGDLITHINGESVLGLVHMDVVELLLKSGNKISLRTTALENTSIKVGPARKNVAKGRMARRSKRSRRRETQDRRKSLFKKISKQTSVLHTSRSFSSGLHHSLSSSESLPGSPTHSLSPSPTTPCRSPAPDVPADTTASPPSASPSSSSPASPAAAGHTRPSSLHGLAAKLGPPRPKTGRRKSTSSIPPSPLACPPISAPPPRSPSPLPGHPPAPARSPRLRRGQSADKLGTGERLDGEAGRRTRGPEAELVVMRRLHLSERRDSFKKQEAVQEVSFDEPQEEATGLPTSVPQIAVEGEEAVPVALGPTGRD
In short: as §1

Compound: CC(C)C[C@H](NC(=O)[C@H](CC(=O)O)NC(=O)[C@H](CO)NC(=O)[C@H](CCC(=O)O)NC(=O)CNC(=O)[C@H](Cc1ccc(O)cc1)NC(=O)[C@H](CC(C)C)NC(=O)[C@H](C)NC(=O)[C@H](CO)NC(=O)[C@H](CO)NC(=O)[C@H](Cc1ccccc1)NC(=O)[C@H](C)NC(=O)[C@H](C)NC(=O)[C@H](Cc1ccc(O)cc1)NC(=O)[C@H](CC(=O)O)NC(=O)[C@H](CC(C)C)NC(=O)[C@H](C)NC(=O)CNC(=O)[C@@H]1CCCN1C(=O)[C@@H](NC(=O)CCCC[C@@H]1SC[C@@H]2NC(=O)N[C@@H]21)C(C)C)C(=O)O [a-actinin 2] (Biotin-VPGALDYAAFSSALYGESDL-OH; C-terminus assumed)
Classification [2]: 1 (A450 nm 0-1)

Compound: A2AA_HUMAN (modified) (Biotin-HDFRRAFKKILARGDRKRIV; not fully specified)
Classification [1]: 1 (A450 nm 0-1)

Compound: CC[C@H](C)[C@H](NC(=O)[C@H](Cc1ccc(O)cc1)NC(=O)[C@H](CC(C)C)NC(=O)[C@H](CCC(N)=O)NC(=O)[C@H](Cc1c[nH]cn1)NC(=O)[C@H](CO)NC(=O)[C@H](C)NC(=O)[C@H](CC(C)C)NC(=O)[C@@H](NC(=O)[C@H](CC(=O)O)NC(=O)[C@H](CCSC)NC(=O)[C@H](Cc1ccccc1)NC(=O)[C@@H]1CCCN1C(=O)[C@H](CCCNC(=N)N)NC(=O)[C@@H](NC(=O)[C@H](CC(C)C)NC(=O)[C@H](CC(N)=O)NC(=O)[C@H](CC(=O)O)NC(=O)[C@@H](NC(=O)[C@H](CO)NC(=O)CCCC[C@@H]1SC[C@@H]2NC(=O)N[C@@H]21)[C@@H](C)O)C(C)C)[C@@H](C)O)C(=O)O [presenilin-2] (Biotin-STDNLVRPFMDTLASHQLYI-OH; C-terminus assumed)
Classification [4]: 1 (A450 nm 0-1)

Compound: CC[C@H](C)[C@H](NC(=O)[C@H](CO)NC(=O)[C@@H](NC(=O)[C@H](Cc1ccccc1)NC(=O)[C@H](CO)NC(=O)CCCC[C@@H]1SC[C@@H]2NC(=O)N[C@@H]21)[C@@H](C)O)C(=O)N[C@@H](CC(C)C)C(=O)N[C@H](C(=O)N[C@@H](CS)C(=O)N[C@@H](Cc1c[nH]cn1)C(=O)N[C@@H](CCC(N)=O)C(=O)N[C@@H](CCCNC(=N)N)C(=O)N[C@@H](CCCNC(=N)N)C(=O)N[C@H](C(=O)N[C@@H](CCC(N)=O)C(=O)N[C@@H](CCCNC(=N)N)C(=O)N[C@@H](CCCCN)C(=O)N[C@@H](CCC(=O)O)C(=O)N[C@H](C(=O)N[C@H](C(=O)N[C@@H](C)C(=O)O)C(C)C)[C@@H](C)O)[C@@H](C)O)[C@@H](C)O [GluR5-2 (rat)]
Classification [3]: 1 (A450 nm 0-1)

Further lines, results first:

Classification [1]: 5 (A450 nm of 4 more than 2× repeated)
Compound: A2AC_HUMAN (Modified) (Biotin-DFRPSFKHILFRRARRGFRQ; not fully specified)

Classification [3]: 1 (A450 nm 0-1)
Compound: ELLQFCRTPNPALKNGQYWV (Biotin-ELLQFCRTPNPALKNGQYWV)

Classification [4]: 1 (A450 nm 0-1)
Compound: KTMPAATYRLLTGQEQPVYL (Biotin-KTMPAATYRLLTGQEQPVYL) [MINT-3]

Classification [2]: 4 (A450 nm 3-4)
Compound: PPATPSPRLALPAHHNATRL (Biotin-PPATPSPRLALPAHHNATRL) [Na+/Pi cotransporter 2]
